The data set concerns the molecule itself. Kind of data set: cross-linking; purified complexes from the major SEC peaks, 0.5 mg/mL in 50 mM HEPES pH 7.5, 150 mM NaCl, 0.1% glutaraldehyde for 30 min at room temperature, quenched with tris; SEC and SDS-PAGE with Coomassie staining.

B1: EsaDEG trimer (complex)
chain 1: MTKDIEYLTADYDNEKSSIQSVIDAIEGQDFLDVDTTMDDAVSDVSSLDEDGAISLTSSVVGPQGSKLMGYYQNELYDYASQLDSKMKEIIDTPFIEDIDKAFKGITNVKLENILIKNGGGHGRDTYGASGKIAKGDAKKSDSDVYSIDEILKSDQEFVKVIDQHYKEMKKEDKKLSKSDFEKMMTQGASCDYMTVAEAEELEEQKKKEEAIEIAALAGMVVLSCINPVAGAVAIGAYSAYSAANAATGKNIVTGRKLSKEERIMEGLSLIPLPGMGFLKGAGKSLMKLGFKGGEKFAVKTGLQKTMQQAVSRISPKMGMMKNSVLNQSRNFAQNTHVGQMLSNMRGQATHTVQQSRNWIGQQAQNVKRIVNNGLDKEIAHPFKQQLAPAGMGGIKFAETTTLRNMGQNIKRAVTPQNHVTHGPKDSMVRSEGKHSISSHEMNSSKYVESPNYTKVEFGEHYARLRPKKLKANIEYTTPTGHIYRTDHKGRIKEVYVDNLSLKDGDRNSHAQRTVGGEDRLPDDDGGALIARMFGGSKDIDNLVAQSKFINRPFKEKGHWYNLEKEWQEFLNSGKEVKNIKMEVKYSGNSQRPTIFKVEYEINGERNIRRILNK
chain 2: MKDVKRIDYFSYEELTILGGSKLPLVNFELFDPSNFEEAKAALIEKELVTENDKLTDAGFKVATLVREYISAIVNIRINDMYFAPFSYEKDEYILLSRFKNNGFQIRIINKDIAWWSIVQSYPLLMRQEKSNDWDFKQIDDETLENLNNESIDTIGRVLEIEIYNHQGDPQQSLYNIYEQNDLLFIRYPLKDKVLNVHIGVINTFIRELFGFDTDENHINKAEE
chain 3: MTFEEKLSKIYNEIANEISSMIPVEWEKVYTMAYIDDGGGEVFFNYTKPGSDDLNYYTNIPKEYNISVQVFDDLWMDLYDLFEELRDLFKEEDLEPWTSCEFDFTREGELKVSFDYIDWINSEFGQIGRQNYYKYRKFGILPETEYEINKVKEIEQYIKELEE
notes: EsaD nuclease toxin of Staphylococcus aureus with H528A, as m1; EsaE chaperone of Staphylococcus aureus, as m5; EsaG immunity protein of Staphylococcus aureus, as m6; also called EsaDEG complex; not shown: His6, C-terminal, kept; copies: + +
With B1, the binding result is listed as “binds”.
